Measurements: patent US20050123900A1

What was measured:
[1] = target: gp120 IIIB (HIV-1 isolate IIIB); assay: ELISA, soluble Fab titrated on Env (gp120 by the footnote; direct coat or D7324 capture not specified)
[2] = target: gp140 MW965.26 (HIV-1 isolate MW965.26); assay: ELISA, soluble Fab titrated on Env (direct coat or D7324 capture not given)
[3] = target: gp140 89.6 (HIV-1 isolate 89.6) (UniProt Q73372); assay: as above
[4] = target: gp140 ZR001.3 (HIV-1 isolate ZR001.3); assay: as above
[5] = target: gp140 UG975-10 (HIV-1 isolate UG975-10); assay: as above
[6] = target: gp140 UG024.2 (HIV-1 isolate UG024.2); assay: as above
[7] = target: gp140 BR019.10 (HIV-1 isolate BR019.10); assay: as above
[8] = target: gp140 Bal-L (HIV-1 isolate Bal-L); assay: as above
[9] = target: gp140 UG037.8 (HIV-1 isolate UG037.8); assay: as above
[10] = target: gp140 HT593.1 (HIV-1 isolate HT593.1); assay: as above
[11] = target: gp140 R2 (HIV-1 isolate R2); assay: as above
[12] = target: gp140 CM243 (HIV-1 isolate CM243); assay: as above
[13] = target: HIV-1 Env TH022.4 on 293 cells (HIV-1 isolate TH022.4); assay: cell-based or functional assay
[14] = target: HIV-1 Env #9-131 on pseudotype virus (HIV-1 isolate #9-131); assay: cell-based or functional assay
[15] = target: HIV-1 Env #4-4/116 on pseudotype virus (HIV-1 isolate #4-4/116); assay: cell-based or functional assay
[16] = target: HIV-1 Env NL4-3 on 293 cells (HIV-1 isolate NL4-3); assay: cell-based or functional assay
[17] = target: HIV-1 Env HT593.1 on 293 cells (HIV-1 isolate HT593.1); assay: cell-based or functional assay
[18] = target: HIV-1 Env Z2Z6 on pseudotype virus (HIV-1 isolate Z2Z6); assay: cell-based or functional assay
[19] = target: HIV-1 Env V5 on pseudotype virus (HIV-1 isolate V5); assay: cell-based or functional assay
[20] = target: HIV-1 Env TH966 on pseudotype virus (HIV-1 isolate TH966); assay: cell-based or functional assay
[21] = target: HIV-1 Env GX-C44 on pseudotype virus (HIV-1 isolate GX-C44); assay: cell-based or functional assay
[22] = target: HIV-1 Env 89.6 on 293 cells (HIV-1 isolate 89.6) (UniProt Q73372); assay: cell-based or functional assay
[23] = target: HIV-1 Env R2 on pseudotype virus (HIV-1 isolate R2); assay: cell-based or functional assay
[24] = target: HIV-1 Env VI14004 on pseudotype virus (HIV-1 isolate VI14004); assay: cell-based or functional assay
[25] = target: HIV-1 Env RW020.5 on 293 cells (HIV-1 isolate RW020.5); assay: cell-based or functional assay
[26] = target: HIV-1 Env GX-E14 on pseudotype virus (HIV-1 isolate GX-E14); assay: cell-based or functional assay
[27] = target: HIV-1 Env US005.11 on 293 cells (HIV-1 isolate US005.11); assay: cell-based or functional assay
[28] = target: HIV-1 Env #6-4/41 on pseudotype virus (HIV-1 isolate #6-4/41); assay: cell-based or functional assay
[29] = target: HIV-1 Env MN-TCLA on pseudotype virus (HIV-1 isolate MN-TCLA) (UniProt P05877); assay: cell-based or functional assay
[30] = target: HIV-1 Env BR029.2 on 293 cells (HIV-1 isolate BR029.2); assay: cell-based or functional assay
[31] = target: HIV-1 Env VI1273 on pseudotype virus (HIV-1 isolate VI1273); assay: cell-based or functional assay
[32] = target: HIV-1 Env 92RW020.5 on pseudotype virus (HIV-1 isolate 92RW020.5); assay: cell-based or functional assay
[33] = target: HIV-1 Env P37 on pseudotype virus (HIV-1 isolate P37); assay: cell-based or functional assay
[34] = target: HIV-1 Env UG975.10 on 293 cells (HIV-1 isolate UG975.10); assay: cell-based or functional assay
[35] = target: HIV-1 Env UG037.8 on 293 cells (HIV-1 isolate UG037.8); assay: cell-based or functional assay
[36] = target: HIV-1 Env BR025.9 on 293 cells (HIV-1 isolate BR025.9); assay: cell-based or functional assay
[37] = target: HIV-1 Env VI1399 on pseudotype virus (HIV-1 isolate VI1399); assay: cell-based or functional assay
[38] = target: HIV-1 Env #8-4/49 on pseudotype virus (HIV-1 isolate #8-4/49); assay: cell-based or functional assay
[39] = target: HIV-1 Env US715.6 on 293 cells (HIV-1 isolate US715.6); assay: cell-based or functional assay
[40] = target: gp120 IIIB (HIV-1 isolate IIIB); assay: ELISA, antigen coated directly on plate, soluble Fab titrated, Langmuir fit
[41] = target: gp120 JR-FL (HIV-1 isolate JR-FL) (UniProt P20871); assay: as above
[42] = target: gp120 89.6 (HIV-1 isolate 89.6) (UniProt Q73372); assay: as above
[43] = target: sCD4-gp120 JR-FL complex (HIV-1 isolate JR-FL) (UniProt P01730); assay: ELISA, sCD4-gp120 complex coated directly on plate, soluble Fab titrated, Langmuir fit
[44] = target: sCD4-gp120 IIIB complex (HIV-1 isolate IIIB) (UniProt P01730); assay: as above
[45] = target: sCD4-gp120 89.6 complex (HIV-1 isolate 89.6) (UniProt Q73372); assay: as above
[46] = target: gp120 HXB2 (HIV-1 isolate HXB2) (UniProt P04578); assay: ELISA, antigen coated directly on plate, soluble Fab titrated, Langmuir fit
[47] = target: sCD4-gp120 HXB2 complex (HIV-1 isolate HXB2) (UniProt P04578); assay: ELISA, sCD4-gp120 complex coated directly on plate, soluble Fab titrated, Langmuir fit

Q: What does the source list for Fab m18?
A: EC50 [1]: 0.48 nM; EC50 [2]: 0.55 nM; EC50 [3]: 1.17 nM; EC50 [4]: 1.07 nM; EC50 [5]: 0.87 nM; EC50 [6]: 0.97 nM; EC50 [7]: 0.77 nM; EC50 [8]: 0.53 nM; EC50 [9]: 0.83 nM; EC50 [10]: 0.25 nM; EC50 [11]: 0.13 nM; EC50 [12]: 116 nM; % of fusion inhibition (syncytia count), Fab at 50 µg/ml [13]: 93%; M18 Concentration (µg/ml) of Fab, 50% neutralization endpoint, pseudovirus assay [14]: > 100 µg/mL; M18 Concentration (µg/ml) of Fab, 50% neutralization endpoint, pseudovirus assay [15]: 6.3 µg/mL; % of fusion inhibition (syncytia count), Fab at 50 µg/ml [16]: 92%; % of fusion inhibition (syncytia count), Fab at 50 µg/ml [17]: 39%; M18 Concentration (µg/ml) of Fab, 50% neutralization endpoint, pseudovirus assay [18]: 25 µg/mL; M18 Concentration (µg/ml) of Fab, 50% neutralization endpoint, pseudovirus assay [19]: < 2 µg/mL; M18 Concentration (µg/ml) of Fab, 50% neutralization endpoint, pseudovirus assay [20]: > 100 µg/mL; M18 Concentration (µg/ml) of Fab, 50% neutralization endpoint, pseudovirus assay [21]: > 25 µg/mL; % of fusion inhibition (syncytia count), Fab at 50 µg/ml [22]: 100%; M18 Concentration (µg/ml) of Fab, 50% neutralization endpoint, pseudovirus assay [23]: 1.6 µg/mL; M18 Concentration (µg/ml) of Fab, 50% neutralization endpoint, pseudovirus assay [24]: < 2 µg/mL; % of fusion inhibition (syncytia count), Fab at 50 µg/ml [25]: 25%; M18 Concentration (µg/ml) of Fab, 50% neutralization endpoint, pseudovirus assay [26]: > 100 µg/mL; % of fusion inhibition (syncytia count), Fab at 50 µg/ml [27]: 93%; M18 Concentration (µg/ml) of Fab, 50% neutralization endpoint, pseudovirus assay [28]: 100 µg/mL; M18 Concentration (µg/ml) of Fab, 50% neutralization endpoint, pseudovirus assay [29]: < 1.6 µg/mL; % of fusion inhibition (syncytia count), Fab at 50 µg/ml [30]: 86%; M18 Concentration (µg/ml) of Fab, 50% neutralization endpoint, pseudovirus assay [31]: 25 µg/mL; M18 Concentration (µg/ml) of Fab, 50% neutralization endpoint, pseudovirus assay [32]: 3 µg/mL; M18 Concentration (µg/ml) of Fab, 50% neutralization endpoint, pseudovirus assay [33]: 100 µg/mL; % of fusion inhibition (syncytia count), Fab at 50 µg/ml [34]: 56%; % of fusion inhibition (syncytia count), Fab at 50 µg/ml [35]: 34%; % of fusion inhibition (syncytia count), Fab at 50 µg/ml [36]: 86%; M18 Concentration (µg/ml) of Fab, 50% neutralization endpoint, pseudovirus assay [37]: > 100 µg/mL; M18 Concentration (µg/ml) of Fab, 50% neutralization endpoint, pseudovirus assay [38]: 5 µg/mL; % of fusion inhibition (syncytia count), Fab at 50 µg/ml [39]: 97%; Kd [40]: 0.08 nM; Kd [41]: 0.9 nM; Kd [42]: 1 nM; Kd [43]: 0.7 nM; Kd [44]: 0.09 nM; Kd [45]: 0.9 nM

Q: What does the source list for Fab m14?
A: % of fusion inhibition (syncytia count), Fab at 50 µg/ml [13]: 100%; M14 Concentration (µg/ml) of Fab, 50% neutralization endpoint, pseudovirus assay [14]: 100 µg/mL; M14 Concentration (µg/ml) of Fab, 50% neutralization endpoint, pseudovirus assay [15]: > 100 µg/mL; % of fusion inhibition (syncytia count), Fab at 50 µg/ml [16]: 96%; % of fusion inhibition (syncytia count), Fab at 50 µg/ml [17]: 78%; M14 Concentration (µg/ml) of Fab, 50% neutralization endpoint, pseudovirus assay [18]: 50 µg/mL; M14 Concentration (µg/ml) of Fab, 50% neutralization endpoint, pseudovirus assay [20]: > 100 µg/mL; M14 Concentration (µg/ml) of Fab, 50% neutralization endpoint, pseudovirus assay [21]: 8.8 µg/mL; % of fusion inhibition (syncytia count), Fab at 50 µg/ml [22]: 100%; M14 Concentration (µg/ml) of Fab, 50% neutralization endpoint, pseudovirus assay [23]: 2.24 µg/mL; % of fusion inhibition (syncytia count), Fab at 50 µg/ml [25]: 31%; M14 Concentration (µg/ml) of Fab, 50% neutralization endpoint, pseudovirus assay [26]: 100 µg/mL; % of fusion inhibition (syncytia count), Fab at 50 µg/ml [27]: 95%; M14 Concentration (µg/ml) of Fab, 50% neutralization endpoint, pseudovirus assay [28]: > 100 µg/mL; M14 Concentration (µg/ml) of Fab, 50% neutralization endpoint, pseudovirus assay [29]: 2.24 µg/mL; % of fusion inhibition (syncytia count), Fab at 50 µg/ml [30]: 71%; M14 Concentration (µg/ml) of Fab, 50% neutralization endpoint, pseudovirus assay [31]: 3.1 µg/mL; % of fusion inhibition (syncytia count), Fab at 50 µg/ml [34]: 22%; % of fusion inhibition (syncytia count), Fab at 50 µg/ml [35]: 100%; % of fusion inhibition (syncytia count), Fab at 50 µg/ml [36]: 71%; M14 Concentration (µg/ml) of Fab, 50% neutralization endpoint, pseudovirus assay [37]: > 100 µg/mL; M14 Concentration (µg/ml) of Fab, 50% neutralization endpoint, pseudovirus assay [38]: 35.4 µg/mL; % of fusion inhibition (syncytia count), Fab at 50 µg/ml [39]: 35%; Kd [46]: 0.3 nM; Kd [41]: 0.9 nM; Kd [42]: 5.4 nM; Kd [47]: 0.4 nM; Kd [43]: 1.2 nM; Kd [45]: 7.3 nM

Q: What does the source list for Fab X5?
A: % of fusion inhibition (syncytia count), Fab at 50 µg/ml [13]: 43%; % of fusion inhibition (syncytia count), Fab at 50 µg/ml [16]: 83%; % of fusion inhibition (syncytia count), Fab at 50 µg/ml [17]: 27%; % of fusion inhibition (syncytia count), Fab at 50 µg/ml [22]: 93%; % of fusion inhibition (syncytia count), Fab at 50 µg/ml [25]: 45%; % of fusion inhibition (syncytia count), Fab at 50 µg/ml [27]: 72%; % of fusion inhibition (syncytia count), Fab at 50 µg/ml [30]: 36%; % of fusion inhibition (syncytia count), Fab at 50 µg/ml [34]: 19%; % of fusion inhibition (syncytia count), Fab at 50 µg/ml [35]: 34%; % of fusion inhibition (syncytia count), Fab at 50 µg/ml [36]: 71%; % of fusion inhibition (syncytia count), Fab at 50 µg/ml [39]: 28%
